Earlier results, collected in paper PMC4961565.

Target: Asp309 (UniProt position 309, LIAAPDTMSVS)
Assay: other

## Cytochrome P450 19A1 (aromatase) (Homo sapiens)
  pKa: 8.2
